Experiment [1] concerns the target T1, GST-KIAA1634 PDZ domain 2 (Homo sapiens (Human)), Q5TCQ9.
T1 chain: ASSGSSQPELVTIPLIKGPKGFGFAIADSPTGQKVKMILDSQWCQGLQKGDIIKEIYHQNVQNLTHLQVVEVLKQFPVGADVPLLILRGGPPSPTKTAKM
Briefly: G assay titration, PDZ 5 ug/ml.

Experiment [2] has as its target T2, GST-PTPL1 PDZ domain 2 (Homo sapiens (Human)), Q12923.
T2 chain: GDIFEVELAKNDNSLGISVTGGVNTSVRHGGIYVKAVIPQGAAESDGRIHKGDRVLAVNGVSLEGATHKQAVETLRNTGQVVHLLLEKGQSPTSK
The experiment in a line: G assay titration, PDZ 5 ug/ml.

The target in experiment [3] is T1, GST-KIAA1634 PDZ domain 2 (Homo sapiens …). The experiment in a line: G' assay. Further: key of the grades not given here.
The target of experiment [4] is T2, GST-PTPL1 PDZ domain 2 (Homo sapiens …). Briefly: G' assay. Further: key of the grades not given here.
The target in experiment [5] is GST-PSD95 PDZ domains 1, 2, 3 (Homo sapiens), P78352. Briefly: G assay competition vs 10 uM biotin-CD95 20-mer; competitor 100 uM.
Experiment [6] has the same target. The experiment in a line: G assay competition vs 20 uM biotin-CLASP-2 20-mer; competitor 100 uM.
Experiment [7] shares this target. Briefly: G assay competition vs 10 uM biotin-KV1.3 20-mer; competitor 100 uM.
Experiment [8] shares this target. The experiment in a line: G assay competition vs 20 uM biotin-CD46 20-mer; competitor 100 uM.
The target of experiment [9] is T3, GST-HEMBA 1003117 PDZ domain 1 (Homo sapiens (Human)), Q96JH8.
T3 chain: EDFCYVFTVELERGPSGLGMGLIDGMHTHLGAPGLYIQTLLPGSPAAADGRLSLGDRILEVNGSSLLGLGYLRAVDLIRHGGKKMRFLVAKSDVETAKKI
The experiment in a line: G assay titration, PDZ 0.5 ug/ml.

Experiment [10] concerns the target GST-PAR3 PDZ domain 3 (Homo sapiens (Human)), Q8TEW0. Briefly: G assay titration, PDZ 0.5 ug/ml.
Experiment [11] addresses T4, GST-MUPP1 PDZ domain 7 (Homo sapiens (Human)), O75970.
T4 chain: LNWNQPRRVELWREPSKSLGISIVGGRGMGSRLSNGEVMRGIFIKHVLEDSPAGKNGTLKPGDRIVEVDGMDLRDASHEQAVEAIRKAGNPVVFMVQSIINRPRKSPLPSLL
The experiment in a line: G assay titration, PDZ 5 ug/ml.

The target in experiment [12] is T5, GST-FLJ 10324 PDZ domain 1 [GST: P08515].
T5 chain: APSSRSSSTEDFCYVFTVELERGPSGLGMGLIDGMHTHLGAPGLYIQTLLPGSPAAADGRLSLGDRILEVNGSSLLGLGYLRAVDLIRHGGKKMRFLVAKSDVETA
Briefly: G assay titration, PDZ 1 ug/ml.

Experiment [13] has as its target T6, GST-PTPL1 PDZ domain 4 (Homo sapiens (Human)), Q12923.
T6 chain: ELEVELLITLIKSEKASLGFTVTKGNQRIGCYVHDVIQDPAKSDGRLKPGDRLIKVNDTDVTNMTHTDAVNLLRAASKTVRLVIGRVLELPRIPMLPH
Briefly: G assay titration, PDZ 3 ug/ml.

In experiment [14] the target is T7, GST-AIPC PDZ domain 4 (Homo sapiens (Human)), O15018.
T7 chain: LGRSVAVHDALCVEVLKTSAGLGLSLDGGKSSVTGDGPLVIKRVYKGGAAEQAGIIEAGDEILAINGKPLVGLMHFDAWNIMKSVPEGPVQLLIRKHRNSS
Briefly: G' assay. Further: key of the grades not given here.

The target of experiment [15] is T8, GST-AF6 PDZ domain 1 (Homo sapiens (Human)), P55196.
T8 chain: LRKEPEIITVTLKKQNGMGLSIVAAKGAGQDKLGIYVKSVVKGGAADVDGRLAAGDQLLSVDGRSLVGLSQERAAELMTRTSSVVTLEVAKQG
Briefly: G' assay. Further: key of the grades not given here.

Experiment [16] deals with T9, GST-KIAA0807(S) PDZ domain 1 (Homo sapiens (Human)), Q6P0Q8.
T9 chain: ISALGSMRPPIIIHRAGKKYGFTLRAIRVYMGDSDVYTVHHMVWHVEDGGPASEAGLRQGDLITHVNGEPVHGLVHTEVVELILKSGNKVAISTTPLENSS
The experiment in a line: G' assay. Further: key of the grades not given here.

Experiment [17] concerns the target T10, GST-MUPP1 PDZ domain 9 (Homo sapiens (Human)), O75970.
T10 chain: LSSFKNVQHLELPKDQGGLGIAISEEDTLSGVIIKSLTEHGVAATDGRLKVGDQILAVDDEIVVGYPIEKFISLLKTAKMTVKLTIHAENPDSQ
The experiment in a line: G' assay. Further: key of the grades not given here.

Experiment [18] addresses T11, GST-NOS1 PDZ domain 1 (Homo sapiens (Human)), P29475.
T11 chain: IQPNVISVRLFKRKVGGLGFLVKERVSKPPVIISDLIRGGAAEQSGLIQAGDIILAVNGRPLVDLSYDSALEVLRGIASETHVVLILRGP
Briefly: G' assay.

For experiment [19], the target named is T3, GST-HEMBA 1003117 PDZ domain 1 (Homo …). The experiment in a line: G' assay.
Experiment [20] deals with T12, GST-ZO-1 PDZ domain 1 (Rattus norvegicus (Rat)), A0A0G2.
T12 chain: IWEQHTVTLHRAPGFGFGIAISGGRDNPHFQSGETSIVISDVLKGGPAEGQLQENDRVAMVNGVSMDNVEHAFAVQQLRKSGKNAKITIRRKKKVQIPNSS
Briefly: G' assay.

In experiment [21] the target is T13, GST-MUPP1 PDZ domain 3 (Homo sapiens (Human)), O75970.
T13 chain: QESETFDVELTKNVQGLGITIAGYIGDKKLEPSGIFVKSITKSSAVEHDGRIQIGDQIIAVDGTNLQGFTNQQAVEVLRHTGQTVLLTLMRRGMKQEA
The experiment in a line: G' assay.

The target of experiment [22] is T14, GST-MINT1 PDZ domains 1, 2, Q02410.
T14 chain: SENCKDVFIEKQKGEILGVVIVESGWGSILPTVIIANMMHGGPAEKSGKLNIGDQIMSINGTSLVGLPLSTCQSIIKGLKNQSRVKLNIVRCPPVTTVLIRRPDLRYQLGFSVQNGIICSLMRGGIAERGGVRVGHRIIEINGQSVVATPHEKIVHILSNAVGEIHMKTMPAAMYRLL
Briefly: G' assay.

The target of experiment [23] is T5, GST-FLJ 10324 PDZ domain 1 [GST: P08515]. Briefly: G' assay.
Experiment [24] deals with GST-PAR3 PDZ domain 3 (Homo sapiens (Human)), Q8TEW0. Briefly: G' assay. Further: key of the grades not given here.
For experiment [25], the target named is T15, GST-AIPC PDZ domain 1 (Homo sapiens (Human)), O15018.
T15 chain: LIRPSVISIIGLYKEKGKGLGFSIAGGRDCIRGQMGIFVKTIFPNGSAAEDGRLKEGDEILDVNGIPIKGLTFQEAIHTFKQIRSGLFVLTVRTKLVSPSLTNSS
The experiment in a line: G' assay.

The target of experiment [26] is T6, GST-PTPL1 PDZ domain 4 (Homo sapiens …). The experiment in a line: G' assay.
The target in experiment [27] is T4, GST-MUPP1 PDZ domain 7 (Homo sapiens …). The experiment in a line: G' assay.
Experiment [28] concerns the target T16, GST-KIAA0751(L) PDZ domain 1 (Mus musculus (Mouse)), Q9EQZ7.
T16 chain: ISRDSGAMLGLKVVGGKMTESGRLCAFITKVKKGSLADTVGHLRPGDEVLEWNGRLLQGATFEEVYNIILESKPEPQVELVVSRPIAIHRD
Briefly: G' assay.

The target in experiment [29] is T17, GST-INADL PDZ domain 3 (Homo sapiens (Human)), Q8NI35.
T17 chain: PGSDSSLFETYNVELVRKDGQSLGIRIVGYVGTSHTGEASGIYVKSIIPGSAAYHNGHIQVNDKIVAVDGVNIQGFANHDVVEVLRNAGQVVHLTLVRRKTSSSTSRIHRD
Briefly: G' assay.

The target of experiment [30] is GST-Atrophin-1 Interacting Protein PDZ domain 5 (Rattus norvegicus (Rat)), O88382. The experiment in a line: G' assay. Further: key of the grades not given here.
For experiment [31], the target named is T18, GST-DVL2 PDZ domain 1 (Homo sapiens (Human)), O14641.
T18 chain: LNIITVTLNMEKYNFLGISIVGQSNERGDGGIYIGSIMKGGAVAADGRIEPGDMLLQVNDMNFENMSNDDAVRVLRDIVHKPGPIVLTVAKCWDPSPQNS
Briefly: G' assay.

In experiment [32] the target is T19, GST-KIAA0561 PDZ domain 1 (Homo sapiens (Human)), O60307.
T19 chain: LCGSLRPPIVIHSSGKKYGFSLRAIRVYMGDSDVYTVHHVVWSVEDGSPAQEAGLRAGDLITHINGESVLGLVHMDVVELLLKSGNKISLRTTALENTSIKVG
Briefly: G' assay.

The target of experiment [33] is T14, GST-MINT1 PDZ domains 1, 2, Q02410. The experiment in a line: G assay titration, PDZ 2 ug/ml.

Sequence of GST-PSD95 PDZ domains 1, 2, 3 (Homo sapiens), P78352 (P78352 62-395): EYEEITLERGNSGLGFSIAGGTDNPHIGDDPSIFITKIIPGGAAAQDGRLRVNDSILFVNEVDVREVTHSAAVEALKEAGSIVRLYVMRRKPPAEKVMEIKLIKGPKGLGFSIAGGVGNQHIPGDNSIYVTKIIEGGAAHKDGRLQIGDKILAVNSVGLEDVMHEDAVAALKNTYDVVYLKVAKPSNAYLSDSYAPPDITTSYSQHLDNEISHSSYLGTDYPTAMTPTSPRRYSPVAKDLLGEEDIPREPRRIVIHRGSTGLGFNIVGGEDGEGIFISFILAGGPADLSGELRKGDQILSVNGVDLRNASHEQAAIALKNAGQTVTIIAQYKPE
Sequence of GST-PAR3 PDZ domain 3 (Homo sapiens (Human)), Q8TEW0 (Q8TEW0 579-681): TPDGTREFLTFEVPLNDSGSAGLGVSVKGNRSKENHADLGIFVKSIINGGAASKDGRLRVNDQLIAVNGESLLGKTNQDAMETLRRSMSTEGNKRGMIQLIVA
Sequence of GST-Atrophin-1 Interacting Protein PDZ domain 5 (Rattus norvegicus (Rat)), O88382 (O88382 1128-1225): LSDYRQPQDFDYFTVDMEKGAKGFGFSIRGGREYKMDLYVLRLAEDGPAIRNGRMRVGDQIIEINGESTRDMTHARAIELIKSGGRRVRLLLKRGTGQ

B1: ActRIIA (peptide)
peptide: IVTVVTMVTNVDFPPKESSL
modifications: not checked
The term Kd denotes the equilibrium constant for the complex coming apart. A low value points to a tighter complex. Turning to B1, the Kd in experiment [1] and in experiment [2] was 5 µM throughout. Further, the results for the Classification in [3] and in [4] were 2 A450 class and 3 A450 class, respectively.

B2: CD46 8-mer (peptide)
peptide: REVKFTSL
modifications: not checked
On to B2, for which the % binding of labelled 20-mer in [5] was 65%; in experiment [6] it was 81%; in [7], 71%; in [8], 95%.

B3: presenilin-2 (peptide)
peptide: STDNLVRPFMDTLASHQLYI
modifications: not checked
B3: the Kd in [9] came out at 4 µM; in experiment [10], 2 µM; in [11], 4 µM; in [12], 1 µM; in experiment [13] it was 8 µM; in [33], 6 µM. The Classification in experiment [14] was 1 A450 class; in experiment [15] it was 3 A450 class; in [16] it was 1 A450 class; in [17], 3 A450 class; in experiment [18] it was 1 A450 class; in experiment [19] it was 4 A450 class. Also, the Classification in [20] was found to be 1 A450 class; in experiment [21] it was 3 A450 class; in experiment [22], 3 A450 class; in [23], 5 A450 class; in experiment [24], 5 A450 class; in [25], 1 A450 class. Moreover, the Classification in experiment [26] worked out at 2 A450 class; in experiment [27], 2 A450 class; in [28], 1 A450 class; in experiment [29], 1 A450 class; in experiment [30], 1 A450 class; in experiment [31] it was 1 A450 class. This molecule yielded a Classification in experiment [32] of 1 A450 class.

The values above are taken from patent publication US20050282743A1, “Molecular interactions in cells” (Arbor Vita Corporation, priority 2001, published 2005).
